We go through 2 substances from US6083712.

The target in the test is biotin synthase (Escherichia coli) (UniProt P12996).

“ferredoxin(flavodoxin)-NADP+ reductase (from UniProt P28861) (enzyme)” came in with a pmol of biotin produced of 800 pmol.

In turn, flavodoxin (from UniProt P61949) showed a pmol of biotin produced of 800 pmol.
